From US20220324969A1 (MYTHIC THERAPEUTICS, published 2022)
Residue numbers refer to the chain shown, from its start. Names and notes keep the numbering of the source.

B1: MYT2644 (antibody, V domains shown)
VH: QVQLQQPGAEVVKPGASVKMSCKASGYTFTSYYIHWIKQTPGQGLEWVGVIYPGNDDISYNQKFQGKATLTADKSSTTAYMQLSSLTSEDSAVYYCAREVRLRYFDVWGQGTTVTVSS
VL: EIVLTQSPGSLAVSPGERVTMSCKSSQSVFFSSSQKNYLAWYQQIPGQSPRLLIYWASTRESGVPDRFTGSGSGTDFTLTISSVQPEDLAIYYCHQYHSSRTFGQGTKLEIK
notes: IgG; IMGN779 VL variant #28 (L98H)
B2: MYT2648 (antibody, V domains shown)
VH: B1 VH
VL: B1 VL with H98L, T102H
notes: IgG; IMGN779 VL variant #32 (T102H)
B3: MYT2645 (antibody, V domains shown)
VH: B1 VH
VL: B1 VL with H98L, S99H
notes: IgG; IMGN779 VL variant #29 (S99H)
B4: MYT2646 (antibody, V domains shown)
VH: B1 VH
VL: B1 VL with H98L, S100H
notes: IgG; IMGN779 VL variant #30 (S100H)
B5: MYT2647 (antibody, V domains shown)
VH: B1 VH
VL: B1 VL with H98L, R101H
notes: IgG; IMGN779 VL variant #31 (R101H)
B6: MYT1335 (antibody, V domains shown)
VH: QVQLVQSGAEVKKPGASVKVSCKASHYTFTNYDINWVRQAPGQGLEWIGWIYPGDGSTKYNEKFKAKATLTADTSTSTAYMELRSLRSDDTAVYYCASGYEDAMDYWGQGTTVTVSS
VL: DIQMTQSPSSLSASVGDRVTINCKASQDINSYLSWFQQKPGKAPKTLIYRANRLVDGVPSRFSGSGSGQDYTLTISSLQPEDFATYYCLQYDEFPLTFGGGTKVEIK
notes: IgG; vadastuximab VH variant #1 (G26H)
B7: MYT1341 (antibody, V domains shown)
VH: B6 VH with H26G, Y32H
VL: B6 VL
notes: IgG; vadastuximab VH variant #7 (Y32H)
B8: MYT1357 (antibody, V domains shown)
VH: B6 VH with H26G, E62H
VL: B6 VL
notes: IgG; vadastuximab VH variant #23 (E62H)
B9: MYT1338 (antibody, V domains shown)
VH: B6 VH with H26G, F29H
VL: B6 VL
notes: IgG; vadastuximab VH variant #4 (F29H)
B10: MYT1353 (antibody, V domains shown)
VH: B6 VH with H26G, T58H
VL: B6 VL
notes: IgG; vadastuximab VH variant #19 (T58H)
B11: MYT1336 (antibody, V domains shown)
VH: B6 VH with H26G, Y27H
VL: B6 VL
notes: IgG; vadastuximab VH variant #2 (Y27H)
B12: MYT1340 (antibody, V domains shown)
VH: B6 VH with H26G, N31H
VL: B6 VL
notes: IgG; vadastuximab VH variant #6 (N31H)
B13: MYT1352 (antibody, V domains shown)
VH: B6 VH with H26G, S57H
VL: B6 VL
notes: IgG; vadastuximab VH variant #18 (S57H)
B14: MYT1337 (antibody, V domains shown)
VH: B6 VH with H26G, T28H
VL: B6 VL
notes: IgG; vadastuximab VH variant #3 (T28H)
B15: MYT1345 (antibody, V domains shown)
VH: B6 VH with H26G, W50H
VL: B6 VL
notes: IgG; vadastuximab VH variant #11 (W50H)
B16: MYT1356 (antibody, V domains shown)
VH: B6 VH with H26G, N61H
VL: B6 VL
notes: IgG; vadastuximab VH variant #22 (N61H)
B17: MYT1346 (antibody, V domains shown)
VH: B6 VH with H26G, I51H
VL: B6 VL
notes: IgG; vadastuximab VH variant #12 (I51H)
B18: MYT1351 (antibody, V domains shown)
VH: B6 VH with H26G, G56H
VL: B6 VL
notes: IgG; vadastuximab VH variant #17 (G56H)
B19: MYT1354 (antibody, V domains shown)
VH: B6 VH with H26G, K59H
VL: B6 VL
notes: IgG; vadastuximab VH variant #20 (K59H)
B20: MYT1349 (antibody, V domains shown)
VH: B6 VH with H26G, G54H
VL: B6 VL
notes: IgG; vadastuximab VH variant #15 (G54H)
B21: MYT1350 (antibody, V domains shown)
VH: B6 VH with H26G, D55H
VL: B6 VL
notes: IgG; vadastuximab VH variant #16 (D55H)
B22: MYT1361 (antibody, V domains shown)
VH: B6 VH with H26G, A66H
VL: B6 VL
notes: IgG; vadastuximab VH variant #27 (A66H)
B23: MYT1358 (antibody, V domains shown)
VH: B6 VH with H26G, K63H
VL: B6 VL
notes: IgG; vadastuximab VH variant #24 (K63H)
B24: MYT1355 (antibody, V domains shown)
VH: B6 VH with H26G, Y60H
VL: B6 VL
notes: IgG; vadastuximab VH variant #21 (Y60H)
B25: MYT1365 (antibody, V domains shown)
VH: B6 VH with H26G, Y100H
VL: B6 VL
notes: IgG; vadastuximab VH variant #31 (Y100H)
B26: MYT1343 (antibody, V domains shown)
VH: B6 VH with H26G, I34H
VL: B6 VL
notes: IgG; vadastuximab VH variant #9 (I34H)
B27: MYT1347 (antibody, V domains shown)
VH: B6 VH with H26G, Y52H
VL: B6 VL
notes: IgG; vadastuximab VH variant #13 (Y52H)
B28: MYT1363 (antibody, V domains shown)
VH: B6 VH with H26G, S98H
VL: B6 VL
notes: IgG; vadastuximab VH variant #29 (S98H)
B29: MYT1339 (antibody, V domains shown)
VH: B6 VH with H26G, T30H
VL: B6 VL
notes: IgG; vadastuximab VH variant #5 (T30H)
B30: MYT1348 (antibody, V domains shown)
VH: B6 VH with H26G, P53H
VL: B6 VL
notes: IgG; vadastuximab VH variant #14 (P53H)
B31: MYT1359 (antibody, V domains shown)
VH: B6 VH with H26G, F64H
VL: B6 VL
notes: IgG; vadastuximab VH variant #25 (F64H)
B32: MYT1360 (antibody, V domains shown)
VH: B6 VH with H26G, K65H
VL: B6 VL
notes: IgG; vadastuximab VH variant #26 (K65H)

Biological target: CD33 (Sino Biological, Cat #12238-H08H) (UniProt P20138 18-259)
Sequence (P20138 18-259 limits assumed): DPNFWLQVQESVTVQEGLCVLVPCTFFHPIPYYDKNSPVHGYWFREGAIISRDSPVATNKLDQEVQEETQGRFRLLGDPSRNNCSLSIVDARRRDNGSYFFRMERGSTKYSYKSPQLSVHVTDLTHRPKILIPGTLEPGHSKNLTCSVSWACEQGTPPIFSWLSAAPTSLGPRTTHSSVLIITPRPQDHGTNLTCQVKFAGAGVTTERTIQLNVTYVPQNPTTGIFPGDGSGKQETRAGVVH
Test: BLI, IgG captured on anti-human Fc sensor, 50 nM CD33, pH 7.4 vs pH 5.4

binding result	Binder
binds	B1
binds	B2
binds	B3
binds	B4
binds	B5
binds	B6
binds	B7
binds	B8
binds	B9
binds	B10
binds	B11
binds	B12
binds	B13
binds	B14
binds	B15
binds	B16

binding result	Binder
binds	B17
binds	B18
binds	B19
binds	B20
binds	B21
binds	B22
binds	B23
binds	B24
binds	B25
binds	B26
binds	B27
binds	B28
binds	B29
binds	B30
binds	B31
binds	B32
